Laboratory results published in US20220380484A1 (MONASH UNIVERSITY, published 2022).

Tests used:
[1] = biological target: plasminogen (human) (UniProt P00747); experiment: cell-based or functional assay
[2] = biological target: plasminogen (human) (UniProt P00747); experiment: SPR (Biacore T200), antibody immobilised; FIG. 1
[3] = biological target: unactivatable mutant of plasminogen (recombinant plasminogen labelled with Alexa-Fluor 647) (human) (UniProt P00747); experiment: flow cytometry: 22.2 nM Alexa-Fluor 647 plasminogen on Group A Streptococcus cells with 2.22 µM G05
[4] = biological target: plasminogen (human) (UniProt P00747); experiment: SPR, multi-cycle; G05 immobilised on the chip, plasminogen injected as analyte; 1:1 Langmuir fit
[5] = biological target: T1, plasmin (human, UniProt P00747 20-580; P00747 581-810); experiment: SPR, multi-cycle; G05 immobilised on the chip, plasmin injected as analyte; 1:1 Langmuir fit
T1 construct: Bought plasmin (Haematologic Technologies) is named in the activity assay; also called Plm; PLM
From the text: Dotted lines represent 1:1 Langmuir model fit to experimental data.

[6] = biological target: unactivatable mutant of plasminogen (recombinant plasminogen labelled with Alexa-Fluor 647) (human) (UniProt P00747); experiment: SDS-PAGE fluorescence scan of the bound fraction: 0.2 µM labelled plasminogen on Group A Streptococcus cells with 7.5 µM G05
[7] = biological target: plasminogen (human) (UniProt P00747); experiment: SPR (Biacore T200), antibody immobilised; FIG. 2
[8] = biological target: plasminogen (human) (UniProt P00747); experiment: SPR, multi-cycle; G11 immobilised on the chip, plasminogen injected as analyte; 1:1 Langmuir fit

T1 sequence (P00747 20-580, chain 1 of 2): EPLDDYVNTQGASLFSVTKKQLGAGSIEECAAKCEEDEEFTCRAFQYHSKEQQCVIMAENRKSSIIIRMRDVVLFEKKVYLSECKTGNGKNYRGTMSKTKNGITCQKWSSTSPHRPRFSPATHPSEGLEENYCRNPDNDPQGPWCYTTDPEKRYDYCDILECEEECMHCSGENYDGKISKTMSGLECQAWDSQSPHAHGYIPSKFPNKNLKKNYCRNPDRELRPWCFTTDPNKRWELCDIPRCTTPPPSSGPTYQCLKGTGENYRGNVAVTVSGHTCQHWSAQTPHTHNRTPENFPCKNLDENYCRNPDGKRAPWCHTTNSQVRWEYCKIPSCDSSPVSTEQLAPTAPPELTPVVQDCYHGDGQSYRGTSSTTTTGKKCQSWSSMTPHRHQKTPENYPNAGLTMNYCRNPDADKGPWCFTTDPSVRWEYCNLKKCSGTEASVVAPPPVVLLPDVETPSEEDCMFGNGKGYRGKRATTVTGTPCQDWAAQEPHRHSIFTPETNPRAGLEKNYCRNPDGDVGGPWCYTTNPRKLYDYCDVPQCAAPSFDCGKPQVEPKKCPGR
T1 sequence (P00747 581-810, chain 2 of 2): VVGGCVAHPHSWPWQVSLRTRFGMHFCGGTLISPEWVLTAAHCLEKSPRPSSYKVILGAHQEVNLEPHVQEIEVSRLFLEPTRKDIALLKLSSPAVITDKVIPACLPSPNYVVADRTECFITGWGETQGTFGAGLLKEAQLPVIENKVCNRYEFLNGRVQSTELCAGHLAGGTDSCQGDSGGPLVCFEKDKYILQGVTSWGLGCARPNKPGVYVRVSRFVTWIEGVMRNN

B1: G05 antibody (scFv, V domains shown)
VH: AVTLDESGGGLQTPGRALSLVCKASGFTFSSYAMHWVRQAPGKGLEFVAGIDNIGSYTRYGAAVKGRVTISRDNGQSIVRLQLDNLRAEDTGTYYCAKSAYGGSCCGPAYIDAWGHGTEVIVSS
VL: QAALTQPSSVSANPGETVEITCSGGGRSSYYGWYQQKSPGSAPVTLIYDNTNRPSNIPSRFSGSKSGSTATLTITGVQGEDEAVYFCGSADSSTTGIFGAGTTLTVL
notes: Chicken antibody from an scFv library (VH and VL joined by a flexible linker); also called scFv fragment of G05
IC50 of tPA-mediated plasminogen activation in solution (20 nM plasminogen, 20 mM EACA, 4 nM tPA, fluorogenic plasmin substrate) [1]: 17.3 nM | IC50 of tPA-mediated plasminogen activation on a preformed fibrin clot (100 nM plasminogen) [1]: 292 nM | fold greater affinity for plasminogen compared to plasmin [2]: 10 fold | percent inhibition of plasminogen binding to GAS cells [3]: 40% | Kd [4]: 7.9 nM | koff [4]: 0.00071 s⁻¹ | kon [4]: 409000 M⁻¹ s⁻¹ | Kd [5]: 0.76 nM | koff [5]: 0.00046 s⁻¹ | kon [5]: 640000 M⁻¹ s⁻¹ | percent reduction in plasminogen binding to GAS cells [6]: 70%

B2: G11 antibody (scFv, part only; not given: linker between domains, part only)
scFv, part: QAALTQPSSVSANPGEIVEITCSGGGTYYGWYQQKSPGSAPVTMIYQNNQRPSNIPSRFSGSGSGPANTLTITGVRAEDEAVYYCGGYDSSAGYATFGAGTTLTVLAVTLDESGGGLQTPGGGLSLVCKASGFSISSYSMYWVRQAPGKGLEFVASISSDGSDTSYGSAVKGRATISRDNGQSTVRLQLNYLRAEDTGTYFCAKPTGGYYTWYETGSIDTWGHGTEVIVSS
IC50 of tPA-mediated plasminogen activation in solution (20 nM plasminogen, 20 mM EACA, 4 nM tPA, fluorogenic plasmin substrate) [1]: 20 nM | IC50 of tPA-mediated plasminogen activation on a preformed fibrin clot (100 nM plasminogen) [1]: 47 nM | fold greater affinity for plasminogen compared to plasmin [7]: 10 fold | Kd [8]: 14 nM | koff [8]: 0.0018 s⁻¹ | kon [8]: 420000 M⁻¹ s⁻¹
